Reference: publication PMC7508256

Key:
Test in all cases: MST
DF1 (YTHDF1) = target: T1, DF1 (YTHDF1) (UniProt Q9BYJ9 1-559)
T1 sequence: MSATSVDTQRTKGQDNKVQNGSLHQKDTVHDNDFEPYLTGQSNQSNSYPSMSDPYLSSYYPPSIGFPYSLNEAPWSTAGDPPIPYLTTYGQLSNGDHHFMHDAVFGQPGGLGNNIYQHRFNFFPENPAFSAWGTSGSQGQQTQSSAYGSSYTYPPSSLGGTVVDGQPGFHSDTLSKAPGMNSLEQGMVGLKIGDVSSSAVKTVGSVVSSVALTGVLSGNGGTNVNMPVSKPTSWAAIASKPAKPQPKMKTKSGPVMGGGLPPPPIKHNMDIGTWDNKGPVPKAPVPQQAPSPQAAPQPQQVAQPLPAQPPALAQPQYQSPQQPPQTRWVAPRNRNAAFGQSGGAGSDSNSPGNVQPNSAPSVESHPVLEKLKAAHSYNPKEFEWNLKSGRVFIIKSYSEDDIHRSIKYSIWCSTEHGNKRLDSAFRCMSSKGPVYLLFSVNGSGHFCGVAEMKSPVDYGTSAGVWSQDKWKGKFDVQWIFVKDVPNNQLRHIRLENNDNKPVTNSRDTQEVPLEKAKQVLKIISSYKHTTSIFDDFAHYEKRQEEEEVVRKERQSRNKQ

DF3 (YTHDF3) = target: T2, DF3 (YTHDF3) (UniProt Q7Z739 1-585)
T2 sequence: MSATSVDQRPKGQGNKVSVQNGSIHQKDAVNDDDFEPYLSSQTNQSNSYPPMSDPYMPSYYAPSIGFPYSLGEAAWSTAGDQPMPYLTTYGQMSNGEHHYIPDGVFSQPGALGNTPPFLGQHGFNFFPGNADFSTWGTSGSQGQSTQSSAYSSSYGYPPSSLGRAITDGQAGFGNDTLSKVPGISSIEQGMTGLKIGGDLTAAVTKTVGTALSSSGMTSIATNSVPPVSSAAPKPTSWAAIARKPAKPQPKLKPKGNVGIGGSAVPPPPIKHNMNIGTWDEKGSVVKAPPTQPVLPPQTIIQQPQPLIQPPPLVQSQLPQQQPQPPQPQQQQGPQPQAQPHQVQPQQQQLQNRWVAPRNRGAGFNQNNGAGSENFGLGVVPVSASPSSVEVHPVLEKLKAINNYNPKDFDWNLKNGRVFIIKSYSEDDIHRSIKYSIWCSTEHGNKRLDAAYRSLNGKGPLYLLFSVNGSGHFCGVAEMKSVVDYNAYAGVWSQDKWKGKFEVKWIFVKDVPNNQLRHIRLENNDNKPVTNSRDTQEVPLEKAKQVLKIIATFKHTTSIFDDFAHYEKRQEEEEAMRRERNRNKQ

DF2 (YTHDF2) = target: T3, DF2 (YTHDF2) (UniProt Q9Y5A9 1-579)
T3 sequence: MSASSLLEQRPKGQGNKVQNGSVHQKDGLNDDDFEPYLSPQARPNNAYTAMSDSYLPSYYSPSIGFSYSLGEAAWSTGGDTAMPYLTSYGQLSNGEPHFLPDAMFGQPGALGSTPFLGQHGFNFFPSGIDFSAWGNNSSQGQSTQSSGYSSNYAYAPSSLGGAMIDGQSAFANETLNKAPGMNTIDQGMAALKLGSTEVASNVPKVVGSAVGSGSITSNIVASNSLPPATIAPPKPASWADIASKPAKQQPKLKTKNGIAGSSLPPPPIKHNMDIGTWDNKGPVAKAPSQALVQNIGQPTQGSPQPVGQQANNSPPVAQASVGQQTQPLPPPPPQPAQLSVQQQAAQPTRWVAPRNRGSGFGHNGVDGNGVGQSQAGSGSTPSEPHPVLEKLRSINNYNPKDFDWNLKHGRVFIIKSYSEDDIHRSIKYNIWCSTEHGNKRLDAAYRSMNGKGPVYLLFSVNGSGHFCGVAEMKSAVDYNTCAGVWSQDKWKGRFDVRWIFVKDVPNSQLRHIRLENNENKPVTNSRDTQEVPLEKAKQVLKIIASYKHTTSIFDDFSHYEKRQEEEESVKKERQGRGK

Measured: binding result

UCCGGACUGU (ssRNA, N6-methyladenosine at position 6) [m6A-modified RNA]
binds: all assays above
